From patent US11905559B2, “Materials and methods for controlling gene expression” (priority 2016, dated 2024)
Residue numbers refer to the chain shown, from its start. Numbers in names are those of the source.

B1: wt: 69-nucleotide full-length wild-type guanine sensing aptamer RNA sequence from xpt-pbuX operon in B. subtilis (SEQ ID NO: 1) (nucleic acid)
chain: CACUCAUAUAAUCGCGUGGAUAUGGCACGCAAGUUUCUACCGGGCACCGUAAAUGUCCGACUAUGGGUG
modifications: RNA, backbone and methylation of C not given here
B2: m6: m6 mutant guanine sensing aptamer RNA (SEQ ID NO: 7); U67A, shorter P3 hairpin and larger L3 loop (nucleic acid)
chain: B1 chain with U54A
modifications: RNA, backbone and methylation of C not given here
notes: U67A, shorter P3 hairpin and larger L3 loop
B3: m7: m7 mutant guanine sensing aptamer RNA (SEQ ID NO: 8); U25C in J1/2 (nucleic acid)
chain: B1 chain with U12C
modifications: RNA, backbone and methylation of C not given here
B4: m4: m4 mutant guanine sensing aptamer RNA (SEQ ID NO: 5); A59G/U67C in the P3 hairpin (nucleic acid)
chain: B1 chain with A46G, U54C
modifications: RNA, backbone and methylation of C not given here
notes: A59G/U67C in the P3 hairpin
B5: m1: m1 mutant guanine sensing aptamer RNA (SEQ ID NO: 2); G37 replaced with adenine in the L2 loop (nucleic acid)
chain: B1 chain with G24A
modifications: RNA, backbone and methylation of C not given here
notes: G37 replaced with adenine in the L2 loop

What was measured:
[1] = Isothermal titration calorimetry (ITC); assay type: binding; settings: for Kd: 50 mM K^+ Hepes pH 7.5, 100 mM KCl, 10 mM MgCl2, read-out: KD for guanine
Experimental: For ITC experiments, wild-type G-aptamer and the mutant RNAs were synthesized by in vitro transcription of the DNA template and purified by denaturing polyacrylamide gel electrophoresis (PAGE). The ligand guanine was introduced in the syringe, while the RNA into the sample cell at a final concentration of 10 μM and 1 μM respectively. The concentrations were determined by absorbance reading using ε260=12010 M^−1 cm^−1 (guanine) and ε260=711400 M^−1 cm^−1 (RNA). The buffer in the syringe and the sample cell contained 50 mM K^+ Hepes (pH 7.5), 100 mM KCl, and 10 mM MgCl2. Binding reactions were performed at 30° C. on a MicroCal iTC200 instrument (Malvern) with a reference power of 6 μcal/sec, an initial delay of 60 secs and a stirring speed of 750 rpm. Guanine was titrated into the sample cell in 16 injections (2.5 μl each). The injection rate was 0.5 μl/sec and the spacing between the injections was maintained at 120 sec. Data was baseline corrected and fitted to a single-site binding model to obtain association constant (KA), stoichiometry (n) and binding enthalpy, ΔH. The dissociation constant (KD) and the binding free energy, ΔG was obtained from the fitted parameters using the following relations. All data analysis was performed using the Origin ITC software.
The ITC results are reported as mean±standard deviation from three independent experiments.

lac Z expression = assay: β-galactosidase reporter assay (xpt-lacZ fusion); assay type: cell-based, B. subtilis; settings: for lac Z expression / transcriptional control (in words): presence and absence of guanine, B. subtilis
Experimental: Kissing-loop mutants were analyzed to determine whether they can exert riboswitch activities by controlling transcription termination, given that the guanine binding was retained in all of them. To test this, a β-galactosidase reporter assay was performed in B.subtilis. […] The gene expression is repressed in wild-type due to the transcription termination in the presence of guanine. […] The fast kissing dynamics between the L2-L3 probably have a stabilizing effect on P1, and therefore an increase in the transcription termination is observed. […] This underscores that the L2-L3 dynamics are directly involved in the P1-helix formation, which affects the terminator hairpin downstream that ultimately results in an alteration of the riboswitch activities.
To assess if the aptamer mutants can exert a transcriptional control similar to the previously reported wild-type xpt-pbuX riboswitch, a xpt-lacZ fusion was constructed as described by Mandal et al., “Riboswitches control fundamental biochemical pathways in Bacillus subtilis and other bacteria”. Cell 113, 577-586 (2003). Briefly, nts −121 to +197 relative to the transcriptional start site of the xpt-pbuX operon from B. subtilis 1A1 (BGSC, Columbus, Ohio) was PCR amplified and cloned upstream of the lacZ reporter gene into pDG1661 vector. After confirming the cloned sequence, plasmid variants were integrated into the amyE locus of the 1A1 strain. Transformants were selected for double markers, specifically for chloramphenicol (5 μg/ml) resistance and sensitivity to spectinomycin (100 μg/ml). Selected B. subtilis colonies were subsequently grown in minimal media (25 g/L K2HPO4·3H2O, 6 g/L KH2PO4, 1 g/L sodium citrate, 0.2 g/l MgSO4·7H2O, 2 g/L Na2SO4, 50 μM FeCl3, 2 μM MnCl2, 50 μg/ml L-Tryptophan, 50 μg/ml L-Lysine, 50 μg/ml L-Methionine, 0.4 g/100 ml glucose, and 0.2 g/100 ml glutamate) at 37° C. with vigorous shaking. Purines were added at a final concentration of 0.1 mg/ml. Cells were harvested at mid-logarithmic growth phase (A600˜0.1-0.4), and resuspended in the above buffer for the reporter assay. The color development was recorded by measuring absorbance, A420 at the end of the reaction with appropriate controls. Data is represented in Miller Units calculated from the following relation:
[formula] where Δt is the total duration taken in the substrate cleavage by […], measured as absorbance, A420. The Miller Units shown in FIG. 4A represents mean±standard deviation from 3 independent experiments, wherein each independent experiment was performed in duplicate.

Molecule | ΔG of guanine binding ([1]; 30° C.) [kJ/mol] | ΔH of guanine binding ([1]; 30° C.) [kJ/mol] | Kd ([1]; 30° C.) [nM] | lac Z expression / transcriptional control (in words) (lac Z expression) | Repression exceeding the wild-type repression (lac Z expression; in the presence of guanine) [fold] | Expression higher than the wild-type (lac Z expression; in the presence of guanine) [fold] | KD off relative to wild-type [1] [fold]
B1 | -48.66 ± 0.837 | -267 ± 4.6 | 4.22 ± 0.6 | repressed |  |  | 
B2 |  |  | 6.7 ± 0.63 | highly repressed | ~3 |  | 
B3 |  |  | 16.9 ± 1 |  |  | ~2.5 | 
B4 |  |  | 3.59 ± 0.05 | moderately repressed |  | ~7 | 
B5 | -39.8 ± 0.92 |  |  | completely de-repressed |  |  | 35
